Target: T1, CD19 expressed on cells (Daudi, Raji, K562-CD19) (human, UniProt P15391 20-556)
T1 chain: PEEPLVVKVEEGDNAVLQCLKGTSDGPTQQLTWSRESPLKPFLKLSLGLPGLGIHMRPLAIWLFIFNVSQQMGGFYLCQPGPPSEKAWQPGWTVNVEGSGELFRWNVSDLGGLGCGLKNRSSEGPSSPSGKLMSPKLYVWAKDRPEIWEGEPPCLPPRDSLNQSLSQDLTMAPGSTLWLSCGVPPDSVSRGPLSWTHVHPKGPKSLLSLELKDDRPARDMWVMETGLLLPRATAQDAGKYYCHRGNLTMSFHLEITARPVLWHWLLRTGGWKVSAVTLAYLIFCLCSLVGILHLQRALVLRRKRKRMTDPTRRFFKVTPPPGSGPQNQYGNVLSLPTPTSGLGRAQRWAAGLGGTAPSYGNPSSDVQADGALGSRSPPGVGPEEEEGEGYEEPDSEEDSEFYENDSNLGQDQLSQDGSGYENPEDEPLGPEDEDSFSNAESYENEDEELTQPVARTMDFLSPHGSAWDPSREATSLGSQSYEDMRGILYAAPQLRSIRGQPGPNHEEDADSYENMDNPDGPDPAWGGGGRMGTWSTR
Experiment: flow cytometry cell binding

EC50: 5 nM
B1: BTN2A1/3A1-Fc-CD19scFv heterodimeric protein (Fc fusion)
chain 1: QFIVVGPTDPILATVGENTTLRCHLSPEKNAEDMEVRWFRSQFSPAVFVYKGGRERTEEQMEEYRGRTTFVSKDISRGSVALVIHNITAQENGTYRCYFQEGRSYDEAILHLVVAGLGSKPLISMRGHEDGGIRLECISRGWYPKPLTVWRDPYGGVAPALKEVSMPDADGLFMVTTAVIIRDKSVRNMSCSINNTLLGQKKESVIFIPESFMPSVSPCAGSGSRKGGKRGSKYGPPCPPCPAPEFLGGPSVFLFPPKPKDQLMISRTPEVTCVVVDVSQEDPEVQFNWYVDGVEVHNAKTKPREEQFNSTYRVVSVLTVLHQDWLSGKEYKCKVSSKGLPSSIEKTISNATGQPREPQVYTLPPSQEEMTKNQVSLTCLVKGFYPSDIAVEWESNGQPENNYKTTPPVLDSDGSFFLYSRLTVDKSRWQEGNVFSCSVLHEALHNHYTQKSLSLSLGKDEGGEDGSDIQMTQTTSSLSASLGDRVTISCRASQDISKYLNWYQQKPDGTVKLLIYHTSRLHSGVPSRFSGSGSGTDYSLTISNLEQEDIATYFCQQGNTLPYTFGGGTKLEITGGGSGGGSGGGSEVKLQESGPGLVAPSQSLSVTCTVSGVSLPDYGVSWIRQPPRKGLEWLGVIWGSETTYYNSALKSRLTIIKDNSKSQVFLKMNSLQTDDTAIYYCAKHYYYGGSYAMDYWGQGTSVTVSS
chain 2: not shown
